Assay results reported in patent US20160257732A1 (published 2016).
“And” between values parts separate entries of the source, which are not always exact repeats. Equal values may be shown once. Read-outs that look alike come from different tables or passages of the source.

How the values were obtained:
Assay in all cases: cell-based or functional assay
[1] = target: HA of A/Fort Monmouth/1/47 (H1N1) (influenza A virus)
[2] = target: HA of A/New Jersey/8/76 (H1N1) (influenza A virus)
[3] = target: HA of A/Kawasaki/9/86 (H1N1) (influenza A virus)
[4] = target: HA of ca A/Texas/36/91 (H1N1) (influenza A virus)
[5] = target: HA of ca A/Beijing/262/95 (H1N1) (influenza A virus)
[6] = target: HA of ca A/New Caledonia/20/99 (H1N1) (influenza A virus)
[7] = target: HA of ca A/swine/Missouri/06 (H2N3) (influenza A virus)
[8] = target: HA of ca A/Vietnam/1203/04 (H5N1) (influenza A virus)
[9] = target: HA of ca A/Hong Kong/213/03 (H5N1) (influenza A virus)
[10] = target: HA of ca A/teal/Hong Kong/W312/97 (H6N1) (influenza A virus)
[11] = target: T1, HA of ca A/chicken/Hong Kong/G9/97 (H9N2) (influenza A virus)
[12] = target: HA of A/Hong Kong/8/68 (H3N2) (influenza A virus)
[13] = target: HA of A/Victoria/3/75 (H3N2) (influenza A virus)
[14] = target: HA of ca A/Sydney/5/97 (H3N2) (influenza A virus)
[15] = target: HA of ca A/Panama/2007/99 (H3N2) (influenza A virus)
[16] = target: HA of A/Wyoming/03/03 (H3N2) (influenza A virus)
[17] = target: HA of A/Wisconsin/67/05 (H3N2) (influenza A virus)
[18] = target: HA of ca A/Perth/16/09 (H3N2) (influenza A virus)
[19] = target: HA of ca A/Netherlands/219/03 (H7N7) (influenza A virus)
[20] = target: T2, HA of ca A/Brit. Columbia/CN-6/04 (H7N3-LP) (influenza A virus)
[21] = target: HA of A/Fort Monmouth/1/47 (H1N1) (influenza A virus); remark: listed apart in the source
[22] = target: HA of A/New Jersey/8/76 (H1N1) (influenza A virus); remark: listed apart in the source
[23] = target: HA of A/Kawasaki/9/86 (H1N1) (influenza A virus); remark: listed apart in the source
[24] = target: HA of ca A/Texas/36/91 (H1N1) (influenza A virus); remark: listed apart in the source
[25] = target: HA of ca A/Beijing/262/95 (H1N1) (influenza A virus); remark: listed apart in the source
[26] = target: HA of ca A/New Caledonia/20/99 (H1N1) (influenza A virus); remark: listed apart in the source
[27] = target: HA of virus H1-BS10
[28] = target: HA of ca A/Japan/57 (H2N2) (influenza A virus)
[29] = target: HA of ca A/swine/Missouri/06 (H2N3) (influenza A virus); remark: listed apart in the source
[30] = target: HA of ca A/Vietnam/1203/04 (H5N1) (influenza A virus); remark: listed apart in the source
[31] = target: HA of ca A/Hong Kong/213/03 (H5N1) (influenza A virus); remark: listed apart in the source
[32] = target: HA of ca A/mallard/Alberta/89/85 (H6N2) (influenza A virus)
[33] = target: HA of ca A/teal/Hong Kong/W312/97 (H6N1) (influenza A virus); remark: listed apart in the source
[34] = target: T1, HA of ca A/chicken/Hong Kong/G9/97 …; remark: listed apart in the source
[35] = target: HA of A/Hong Kong/8/68 (H3N2) (influenza A virus); remark: listed apart in the source
[36] = target: HA of A/Victoria/3/75 (H3N2) (influenza A virus); remark: listed apart in the source
[37] = target: HA of ca A/Sydney/5/97 (H3N2) (influenza A virus); remark: listed apart in the source
[38] = target: HA of ca A/Panama/2007/99 (H3N2) (influenza A virus); remark: listed apart in the source
[39] = target: HA of A/Wisconsin/67/05 (H3N2) (influenza A virus); remark: listed apart in the source
[40] = target: HA of ca A/Perth/16/09 (H3N2) (influenza A virus); remark: listed apart in the source
[41] = target: HA of A/Victoria/361/11 (H3N2) (influenza A virus)
[42] = target: HA of ca A/Netherlands/219/03 (H7N7) (influenza A virus); remark: listed apart in the source
[43] = target: T2, HA of ca A/Brit. Columbia/CN-6/04 …; remark: listed apart in the source
[44] = target: HA of ca A/Anhui/1/13 (H7N9) (influenza A virus)
[45] = target: HA of swine-origin A/Minnesota/11/2010 H3N2 virus (influenza A virus)

B1: Antibody 3 (antibody, V domains shown)
VH: QVQLQESGPGLVKPSQTLSLTCAISGDSVSSNNAVWNWIRQSPSRGLEWLGRTYYRSKWYNDYAESVKSRITVNPDTSKNQFSLHLKSVTPEDTAVFYCVRSGHITVFGVNVDAFDMWGQGTMVTVSS
VL: DIQMTQSPSSLSASVGDRVTITCRTSQSLSSYLHWYQQKPGKAPKLLIYAASSLQSGVPSRFSGSGSGTDFTLTISSLQPEDFATYYCQQSRTFGQGTKVEIK
[1]
  Neutralization IC50, H1-FM47: 0.92 µg/mL
[2]
  Neutralization IC50, H1-NJ76: 1.41 µg/mL
[3]
  Neutralization IC50, H1-Kaw86: 0.58 µg/mL
[4]
  Neutralization IC50, H1-TX91: 0.6 µg/mL
[5]
  Neutralization IC50, H1-BJ95: 3.41 µg/mL
[6]
  Neutralization IC50, H1-Ncal99: 0.79 µg/mL
[7]
  Neutralization IC50, H2-MO06: 2.27 µg/mL
[8]
  Neutralization IC50, H5-VM04: 2.11 µg/mL
[9]
  Neutralization IC50, H5-HK03: 4.64 µg/mL
[10]
  Neutralization IC50, H6-HK97: 1.77 µg/mL
[11]
  Neutralization IC50, H9-HK97: 1.79 µg/mL
[12]
  Neutralization IC50, H3-HK68: 0.68 µg/mL
[13]
  Neutralization IC50, H3-Vic75: 0.75 µg/mL
[14]
  Neutralization IC50, H3-Syd97: 3.75 µg/mL
[15]
  Neutralization IC50, H3-Pa99: 17.7 µg/mL
[16]
  Neutralization IC50, H3-Wy03: 0.63 µg/mL
[17]
  Neutralization IC50, H3-WI05: 2.44 µg/mL
[18]
  Neutralization IC50, H3-Perth09: 1.49 µg/mL
[19]
  Neutralization IC50, H7-NLD03: 4.78 µg/mL
[20]
  Neutralization IC50, H7-BC04: 4.72 µg/mL
[21]
  Neutralization IC50, H1-FM47: 1.04 µg/mL
[22]
  Neutralization IC50, H1-NJ76: 0.57 µg/mL
[23]
  Neutralization IC50, H1-Kaw86: 1.01 µg/mL
[24]
  Neutralization IC50, H1-TX91: 0.92 µg/mL
[25]
  Neutralization IC50, H1-BJ95: 2.98 µg/mL
[26]
  Neutralization IC50, H1-Ncal99: 1.16 µg/mL
[27]
  Neutralization IC50, H1-BS10: 2.16 µg/mL
[28]
  Neutralization IC50, H2-JP57: 0.46 µg/mL
[29]
  Neutralization IC50, H2-MO06: 1.09 µg/mL
[30]
  Neutralization IC50, H5-VM04: 1.19 µg/mL
[31]
  Neutralization IC50, H5-HK03: 0.71 µg/mL
[32]
  Neutralization IC50, H6-AB85: 0.69 µg/mL
[33]
  Neutralization IC50, H6-HK97: 0.63 µg/mL
[34]
  Neutralization IC50, H9-HK97: 1.18 µg/mL
[35]
  Neutralization IC50, H3-HK68: 1.37 µg/mL
[36]
  Neutralization IC50, H3-Vic75: 1.12 µg/mL
[37]
  Neutralization IC50, H3-Syd97: 6.5 µg/mL
[38]
  Neutralization IC50, H3-Pa99: 9 µg/mL
[39]
  Neutralization IC50, H3-WI05: 2.62 µg/mL
[40]
  Neutralization IC50, H3-Perth09: 1.3 µg/mL
[41]
  Neutralization IC50, H3-VC11: 3.4 µg/mL
[42]
  Neutralization IC50, H7-NLD03: 4.74 µg/mL
[43]
  Neutralization IC50, H7-BC04: 2.95 µg/mL
[44]
  Neutralization IC50, H7-ANU13: 4.26 µg/mL
[45]
  Neutralizing activity IC50, swine-origin A/Minnesota/11/2010: 2.2 µg/mL and 4.2 µg/mL
